Laboratory results from the DeepSol protein solubility set.

test: soluble on expression in E. coli; label from the status in PepcDB or PDB records

| Sequence | soluble on expression in E. coli |
| --- | --- |
| GPGSMPVEREVITLAFGNYSSLVAAQWANGTSHYDAHHSTLYSECRSADVLGGGSSGNGRVRVPRLLLLDAPYASAFDDIDVWARKYKDDAKIGEEGDAAYNPSEASPSPVHRGDATEEKDHLFASVVKAVQRHVFEQHGLDDDDSHGGNDDAGGADDAQNDDGEDADAHLLDEDEEDDVSKNAGRRGSATIPHSRAQRQARLKRKLFDEHNTTIPWWQYITTGLGPNSVTSVKPLQHVDAAGDLPALHSFGYGLAYLRDGGRSSEVVDLNDALRRNLEAADQLQGIQCFTDGDGLFGGAAANVLEQLWEDAGPKTPVVQACSFARLPALVADPAYRAEVAFRERRMDEVALNQLLATLHLSRHTSAVYIPVPLSDWDVLFKGAATAASPTEAPPWLQDERATAQLLAAVIDTALYGLRDGSRASGVSSQGPQWYMDEWCRVVRPAPSLRVAAAMGALPQSVSASSELWEFLQANPLLPDAPQLDERMVRANDSAEDDASSGQARQQAKFFPLTHTMSTYSTAHTAGQVLGHVASLRGAGCLPATVYPAREAMLRYALPLRTSTYLPLVTEVSYPISDTFPTELLFADPAAMAKVPGGASGSGGSEGITSLRRVLQSVDVGAHVLSTYATAPMLHDISTKAQAALRNKMDRYCDAYVMEKDDWREALDEGLALFDDYNHAPLSDAQDGGGSDGDDY | not soluble |
| MGSDKIHHHHHHMEYISLNRLGGAAGCPADAEAAARFRAALPEGCKGTFAVARRIAPVIIDFDLVMQEGAASVSLAKGLGLPVVPCIRRQVERARTDFPQRLQLELTNCCNNDCVMCPRHGGHFTRKPKHMDLDLVRRALDEIAQHYNYQLQLFHIGEPLLHPRIFEILDMLEDYPTLGRKWISSKGQELTPDIMRRVLTSKVDYFNYSLLAMTPATYARIVPNGDYATVRGNLERLADLKRDLGVQRPYLRAQMIEMDEALHEIDAFLDTWADRVDLLSVNRLETFSNRIDAKVTSAIKPRESIGPRACKRLERGDLYILSNGEVTVCDTDFNGELSLGNLNETTLAEMARGARYRQIIDSHERGDYSQIELCRHCEDWNL | not soluble |
| FNLKTPGREDDASSESGDNAEAERAPAFIRALGGAANLEVVDACTTRLRLRLVDRNKASDAQLKALGAMAVVRPGKAGSLQVVVGPQADSIADEIRRALPFDTQPGEAVPPLGSPHTAEEVVAMQATVDAAEAQAWLGALGGAGNLREVRDVALTRLRVSVADERKLATEQLRRLGGQGVSSLAGGICHILVGPRAAALSQALQPLLR | not soluble |
| MANKLTILASVVAASTAMMATSAQAADTTLDKVTKQGFLTCGVSTGLPGFSNPNSKGEWEGIDVEYCQALAAAVLGDKTKVKYVPLTAKERFTALQSGEIDVLSRNTTWTLHRDTALGLNFVGVNYYDGQGFMVKKDLGISSAKELDGASVCVQSGTTTELNLADYFRNSGMSYKPVVFDTAAQTSKGFDAGRCDVLTTDQSGLYALRLNLKDPSSAAVLPEIISKEPLGPVVRQGDDQWFNIAKWTLAAMVNAEEYGITSKNADEMLKSQDPNIKRILGVDGPKGKGLGIRDDWGYQVVKQVGNYGESFERTVGKGSPLEIARGVNALWNAGGFMYAPPIR | not soluble |
| GPGSMNLGHAAASSIVVKVAELAKKAFYRLKISSAYSSKLTEAVGTALMSADPEVPVDPNRRSGGHVIRNMIYQHDSSHNIEIVTGWKDQGTREYNQQIAPPAKLDLSPKHPCYPLNEQLVRCSLECPMEMKLAGRIASCNSERKNLMVCLTKNKSWKEEPASAWYKFF | not soluble |
| MGSDKIHHHHHHMAPRIKTRDRIAQASLELFNAQGERSVTTNHIATHLGISPGNLYYHYPNKQAIIAELFAEYESHVESFLRLPEGRGLTVDDKTFYLEALLAAMWRYRFLHRDLEHLLESDPELAARYRAFAQRCLVNAKAIYRGFTEAGILRMNETQLEALTLNAWIILTSWVRFLCTTLDLDGDLSEAQLRRGIYQVLALESGHIEAQAQDAVDGISERLYVPL | not soluble |
| MLQLTHVTLKTRQVILQDVDFTFKKGRVYGLLAINGSGKTTLFRAISNLIPISSGNIAAPPSLFYYESIEWLDGNLSGMDYLRLIKNIWKSGLNLRDEIAYWEMSDYISLPIRKYSLGMKQRLVIAMYFLSQAKCWLMDEITNGLDEYYRQKFFDRLAQIDRQEQLVLLSSHYKEELVDVCDRVVTIHQGQIEEV | not soluble |
| MGHHHHHHSHMVAWKRQLILFGGFHESTRDYIYYNDVYAFNLDTFTWSKLSPSGTGPTPRSGCQMSVTPQGGIVVYGGYSKQRVKKDVDKGTRHSDMFLLKPEDGREDKWVWTRMNPSGVKPTPRSGFSVAMAPNHQTLFFGGVCDEEEEESLSGEFFNDLYFYDATRNRWFEGQLKKLRSGWRRRTRKRTVRRLRAPRVGSTTKTAERRAVRRTESPCQGRLASAVPTSAQDPAVLSEALGASVRPDAQERAEGGWPRPGCELSPMV | not soluble |
| MSTGTPTTQKVVKTSIRLGPVNPPTPTRNTQGGHGFSAEFLEYRRRRQERHTVRLAKLPNETLIIGGANPFDARNVPEAIKKFRDLVDEKIGDKVHKKDANKSKIVFREEEEETQNGTITID | not soluble |
| MSTKPPIERIMYIQMRTSLEMFRSDLVDLEALANAAKEALEQLPYIPKEPCGKGEDDPLSGPESALRTGRLCGLVCCTATAAENALSTCSKLIDWAYANEPDGVDDAVLADDDDDDDDDDEGGGNGANGGGGTNGGGDGSNGSGNGSPPDGGGVGAAPSPGRGELAETRPSRSGVALDLTPAPAPAGTPVA | not soluble |
| MSLEENMEGALFLENESFCEEIPDNPNIEKEKPLEFISSGNLEIDRKLEGGIPVGSLCLLEGAKDSGKSIFMQQIMWGALNQDKKVLALTTEKTSRNLLNNMESLKQDISDYFIIGRSKIFEINASDVEENPEISENLLEIMLECIKECEEELILIDSLTILAVNASENTLLNFFRECIKLCDKKKTILISVHGYAFSQEVLYRLRSVCNSCLELRIEQVGDKLIKTMEIQKLRGAKKTTGNMLSFDVNSECGLKIIPVSKVKAEGHHHHHH | soluble |
| MSLDTQSDYVVVGTGSAGAVVASRLSTDPATTVVALEAGPRDKNRFIGVPAAFSKLFRSEIDWDYLTEPQPELDGREIYWPRGKVLGGSSSMNAMMWVRGFASDYDEWAARAGPRWSYADVLGYFRRIENVTAAWHFVSGDDSGVTGPLHISRQRSPRSVTAAWLAAARECGFAAARPNSPRPEGFCETVVTQRRGARFSTADAYLKPAMRRKNLRVLTGATATRVVIDGDRAVGVEYQSDGQTRIVYARREVVLCAGAVNSPQLLMLSGIGDRDHLAEHDIDTVYHAPEVGCNLLDHLVTVLGFDVEKDSLFAAEKPGQLISYLLRRRGMLTSNVGEAYGFVRSRPELKLPDLELIFAPAPFYDEALVPPAGHGVVFGPILVAPQSRGQITLRSADPHAKPVIEPRYLSDLGGVDRAAMMAGLRICARIAQARPLRDLLGSIARPRNSTELDEATLELALATCSHTLYHPMGTCRMGSDEASVVDPQLRVRGVDGLRVADASVMPSTVRGHTHAPSVLIGEKAADLIRSEGHHHHHH | soluble |
| MGSDKIHHHHHHMPPVWTLPRLYQHFQGAIDLELWTIPYYLTVLYSIKDPTTVPYRLIQAAVYQEMLHAQLVSNIANAYGYSPTLSAPEYVGTAVPHIDFDLDTPNPTSIFTPYSAELGPLDLTRVNTMCLIEYPEWRTQREPDLADDVTDYGSIGEFYDALRVGMEQLRGHVRGNQKQMDEFGPFYQNSPPLTVTESGDAGFLQALTLVDIIVDQGEGQTQPVETIPTEFQNTADGFQDAWPHFQRFDFIRRMPNWPGVYTGVTDPPAGSPGAEAQARLIADFAGFLDILNGMFSGGGAPPAFGVQMAKLGGDILSCWKLGAVPRYS | not soluble |
| MFGGIENVKAAEPKVYQFDFGSGSMEPGYIGVRASDRYDRSKGYGFQTPENMRDVAASGAGVKSDAVEFLAYGTKSNNTFNVDLPNGLYEVKVTLGNTARASVAAEGVFQVINMTGDGAEDTFQIPVTDGQLNLLVTEGKAGTAFTLSALKIKKLSDQPVTNRTIYVGGDSTVCNYYPLNSSKQAGWGQMLPHYIDKHTFQVRNMASGGQIARGFRNDGQLEAILKYIKPGDYFMLQLGINDTNPKHKESEAEFKEVMRDMIRQVKAKGADVILSTPQGRATDFTSEGIHSSVNRWYRASILALAEEEKTYLIDLNVLSSAYFTSIGPERTLGLYMDGDTLHPNRAGADALARLAVQELKRQGIAGFLEHHHHHH | soluble |
| MGSDKIHHHHHHMRLKISLLSPADSFEIDLNHSYHLASAIYRAIERADPSLSIELHKPDVPKFFTFSKLFIPKRKFRIEGEKMVSDCEEAYFFFSTLRNEVAASLVEGLLSKPEIRICGVDFIVSEVSVLPEREVKGREKFVTLSPIYASTSVGENGRRRIFDLYPKDSKFYEVILQNLVKKYVLYYKSAPENLDFHMKPLNVKAKRIRLKDTFHRCVEMVFKAEGSPELLDVGYKAGFGSKNSMGFGMVKVV | not soluble |
| MLAKRSIALTAATLLREPILRREDIADSLLARDILADARQQATQILALEQEKAEHLQQQALAQFWENANAFLGELQVQREALQEQAMTAVEELLSESLRHLLDDTTLAERARALARNLAASQLNEAVATLSVHPQIADAVAEWLADSRFSEHWQLKRDATIASDSLRLSDANGAFDIAWADLRKGLLGVEPAA | not soluble |
| MNCGPPPTLSFAAPMDITLTETRFKTGTTLKYTCLPGYVRSHSTQTLTCNSDGEWVYNTFCIYKRCRHPGELRNGQVEIKTDLSFGSQIEFSCSEGFFLIGSTTSRCEVQDRGVGWSHPLPQCEILEHHHHHH | soluble |
| GHMKCPVCHQGEMVSGIKDIPYTFRGRKTVLKGIHGLYCVHCEESIMNKEESDAFMAQVKAFRASVNAETVAPEFIVKVRKKLSLTQKEASEIFGGGVNAFSRYEKGNAQPHPSTIKLLRVLDKHPELLNEIR | soluble |
| MKISPSRQVKGEIEIIPVSGFRGIGKFIDVPWRLYADDPLWVPPLRLERRLHLSRFNPYFRHAQWQGWIACRDNQPVGRISAQIDELYQQRYGTDTGHFGMLESIQDEAVFSRLIQVAESWLVERGVRQISGPFNFSINQECGLLVQGFDTPPVFMMPYSPEWYTSLLEQNGYQPCKDLLAYWLVTDFDPPPAMQAIDRKYRHQIRIRPLQRNRFNEEIETMRDIFNDAWSDNWGFVPFTQEEFAELGSSLRWLVPDEFIQIAEIDGRPVAFMAVLPNLNEVLPALNGKLLPLGWLHLINKLKSASITTGRVPLMGVRKQFHHTLVGIALAFKVIDAPRKMVKSRGIGHVELSWILEDNQSMRAILEKIGGREYKRYRIYDKTLA | not soluble |
| MKFTSLLTAGALASTLVSPAIMAADTASASLSDAQKKEIEKVIHDYLINNPEVLLEASQALQQKQQQNMQQQAQAAIQENAEQVFQGKLTTVGNPKGNVTLVEFFDYQCIHCKKMASTIENLVKKDSGLRVIYKEFPIFGKTSDLASRVALAAGMQGKYQAMHNALITIDKRLDEKTVMDAAKSIGLDMQKLKKDMDSQEVTDILDANRQLAEKLHLMGTPAFIIGSTPDGQYKKGSEISFIPGATSEQSLRELIKKAAGN | not soluble |
| MGSDKIHHHHHHMLIISDAHANIHPLKYVIQREKFDKIVFCGDAVDYGPNPGETLDLLKENADVMVSGNHDYAAAYSVDCRCGEENHELSVFTRENITLKKLGKNDISFLRSLPNRMDMEIDGMKFQVMHGSPRDELYGYMYPWSVQDHLRSMLGSPLDPANYVVGHTHYQFLIRYAGNLVINPGSIGQPRDNPMPSYAVYDSSRNSVEFPRFDYDRSKLKEDIRSIISDQEILSGLYRLFSL | not soluble |
| SLDFRDKVRNMDLQAGLYRHYKGQNYRVLGVARHSETEEALVIYQALYGEFGLWVRPLEMFTEAVEVDGEWVPRFVLVSPEADPLGLQKAPGGEDRA | soluble |
